Results taken from the supplement of paper PMC9112550, “Optimization of the antimicrobial peptide Bac7 by deep mutational scanning” (BMC Biology, 2022).

Test system: Escherichia coli TOP10
Experiment: shrunken log2 fold change of peptide-encoding DNA abundance (4.5 h post-induction vs induction); higher = less antimicrobial activity (less host growth inhibition)
Details: time post-induction: 4.5 h; library: site-saturation at positions 5, 18, 19, 20
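Also: peptides expressed intracellularly from a pBAD plasmid library in pooled LB shake-flask culture, induced with 0.3% L-arabinose, DNA abundance read by NGS, three biological replicates, DESeq2 with apeglm shrinkage.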

| Sequence | shrunken log2 fold change |
| --- | --- |
| RRIRGRPPRLPRPRPRPFCNPRP | 0.243 |
| RRIRTRPPRLPRPRPRPIALPRP | -0.156 |
| RRIRFRPPRLPRPRPRPDFTPRP | 0.138 |
| RRIRYRPPRLPRPRPRPQIRPRP | -0.00839 |
| RRIRMRPPRLPRPRPRPAILPRP | 0.467 |
| RRIRWRPPRLPRPRPRPTDTPRP | -0.0769 |
| RRIRFRPPRLPRPRPRPWNEPRP | -0.173 |
| RRIRFRPPRLPRPRPRPFRNPRP | 0.0579 |
| RRIRKRPPRLPRPRPRPMFMPRP | -0.116 |
| RRIRERPPRLPRPRPRPNWFPRP | -0.0607 |
| RRIRFRPPRLPRPRPRPAHYPRP | -0.059 |
| RRIRFRPPRLPRPRPRPPPMPRP | 1.17 |
| RRIRHRPPRLPRPRPRPERYPRP | -0.0389 |
| RRIRSRPPRLPRPRPRPGVMPRP | 0.161 |
| RRIRCRPPRLPRPRPRPASVPRP | 0.176 |
| RRIRQRPPRLPRPRPRPYMQPRP | -0.239 |
| RRIRERPPRLPRPRPRPPVAPRP | 0.658 |
| RRIRIRPPRLPRPRPRPECRPRP | 0.0513 |
| RRIRCRPPRLPRPRPRPVSHPRP | -0.0571 |
| RRIRDRPPRLPRPRPRPHARPRP | 0.0493 |
| RRIRIRPPRLPRPRPRPNPEPRP | -0.0503 |
| RRIRQRPPRLPRPRPRPDYWPRP | 0.156 |
| RRIRPRPPRLPRPRPRPDVYPRP | -0.194 |
| RRIRARPPRLPRPRPRPIPEPRP | 0.0265 |
| RRIRLRPPRLPRPRPRPFSPPRP | 2.3 |

| Sequence | shrunken log2 fold change |
| --- | --- |
| RRIRCRPPRLPRPRPRPQCVPRP | -0.0975 |
| RRIRGRPPRLPRPRPRPPTDPRP | 1.24 |
| RRIRRRPPRLPRPRPRPLVQPRP | 0.355 |
| RRIRERPPRLPRPRPRPVFHPRP | -0.238 |
| RRIRSRPPRLPRPRPRPQCCPRP | -0.312 |
| RRIRFRPPRLPRPRPRPWMEPRP | -0.706 |
| RRIRVRPPRLPRPRPRPEYAPRP | 0.111 |
| RRIRERPPRLPRPRPRPGRIPRP | -0.0858 |
| RRIRGRPPRLPRPRPRPRDSPRP | 0.257 |
| RRIRMRPPRLPRPRPRPVQCPRP | -0.0134 |
| RRIRIRPPRLPRPRPRPYYPPRP | -1.36 |
| RRIRSRPPRLPRPRPRPKYNPRP | -0.62 |
| RRIRQRPPRLPRPRPRPYRAPRP | -0.0946 |
| RRIRKRPPRLPRPRPRPPWYPRP | 0.131 |
| RRIRSRPPRLPRPRPRPMWTPRP | -0.0682 |
| RRIRCRPPRLPRPRPRPWINPRP | 0.102 |
| RRIRWRPPRLPRPRPRPLHQPRP | 0.0809 |
| RRIRMRPPRLPRPRPRPHLGPRP | 0.086 |
| RRIRLRPPRLPRPRPRPDLFPRP | -0.000844 |
| RRIRNRPPRLPRPRPRPNQFPRP | -0.376 |
| RRIRLRPPRLPRPRPRPNYHPRP | -0.536 |
| RRIRPRPPRLPRPRPRPANIPRP | -0.617 |
| RRIRLRPPRLPRPRPRPKGMPRP | -0.0948 |
| RRIRYRPPRLPRPRPRPYIWPRP | -0.29 |
| RRIRGRPPRLPRPRPRPAYIPRP | -0.156 |

| Sequence | shrunken log2 fold change |
| --- | --- |
| RRIRLRPPRLPRPRPRPPPDPRP | 1.19 |
| RRIRIRPPRLPRPRPRPYCAPRP | -0.978 |
| RRIRARPPRLPRPRPRPKCSPRP | 0.0215 |
| RRIRMRPPRLPRPRPRPTPEPRP | 0.713 |
| RRIRNRPPRLPRPRPRPHMTPRP | 0.0432 |
| RRIRCRPPRLPRPRPRPSTTPRP | -0.257 |
| RRIRFRPPRLPRPRPRPFFFPRP | 0.121 |
| RRIRARPPRLPRPRPRPTICPRP | 0.144 |
| RRIRCRPPRLPRPRPRPHHVPRP | 0.0159 |
| RRIRGRPPRLPRPRPRPHDTPRP | 0.358 |
| RRIRERPPRLPRPRPRPHSVPRP | -0.00145 |
| RRIRHRPPRLPRPRPRPQRWPRP | 0.00359 |
| RRIRSRPPRLPRPRPRPHRTPRP | -0.0768 |
| RRIRWRPPRLPRPRPRPATNPRP | 0.317 |
| RRIRIRPPRLPRPRPRPGTEPRP | -0.0203 |
| RRIRHRPPRLPRPRPRPINAPRP | 0.0354 |
| RRIRNRPPRLPRPRPRPDVRPRP | -0.104 |
| RRIRERPPRLPRPRPRPNIKPRP | -0.788 |
| RRIRSRPPRLPRPRPRPVMNPRP | 0.0346 |
| RRIRIRPPRLPRPRPRPNHCPRP | -0.937 |
| RRIRQRPPRLPRPRPRPANMPRP | -0.242 |
| RRIRCRPPRLPRPRPRPIAPPRP | 0.509 |
| RRIRVRPPRLPRPRPRPDENPRP | -0.0618 |
| RRIRWRPPRLPRPRPRPPYLPRP | -0.184 |
| RRIRIRPPRLPRPRPRPMYSPRP | -0.11 |

| Sequence | shrunken log2 fold change |
| --- | --- |
| RRIRDRPPRLPRPRPRPYLLPRP | -0.179 |
| RRIRQRPPRLPRPRPRPNKMPRP | -0.0321 |
| RRIRGRPPRLPRPRPRPPEIPRP | 0.851 |
| RRIRFRPPRLPRPRPRPTMSPRP | -0.236 |
| RRIRCRPPRLPRPRPRPPDPPRP | 0.459 |
| RRIRRRPPRLPRPRPRPTSNPRP | 0.123 |
| RRIRARPPRLPRPRPRPIFEPRP | 0.125 |
| RRIRRRPPRLPRPRPRPNVLPRP | -0.185 |
| RRIRARPPRLPRPRPRPTLGPRP | 0.504 |
| RRIRMRPPRLPRPRPRPMCDPRP | 0.709 |
| RRIRMRPPRLPRPRPRPLMLPRP | -0.0158 |
| RRIRERPPRLPRPRPRPGWSPRP | 0.135 |
| RRIRNRPPRLPRPRPRPVMKPRP | 0.0939 |
| RRIRGRPPRLPRPRPRPGWLPRP | 1.17 |
| RRIRLRPPRLPRPRPRPIPNPRP | -0.135 |
| RRIRDRPPRLPRPRPRPQVWPRP | 0.0447 |
| RRIRIRPPRLPRPRPRPSALPRP | -0.832 |
| RRIRSRPPRLPRPRPRPRVPPRP | 0.692 |
| RRIRMRPPRLPRPRPRPHKLPRP | -0.0702 |
| RRIRCRPPRLPRPRPRPGKRPRP | 0.244 |
| RRIRCRPPRLPRPRPRPHYWPRP | -0.783 |
| RRIRHRPPRLPRPRPRPWYRPRP | -0.0954 |
| RRIRYRPPRLPRPRPRPRWNPRP | -0.102 |
| RRIRRRPPRLPRPRPRPWWLPRP | -0.00877 |
| RRIRSRPPRLPRPRPRPCHWPRP | -0.0782 |

| Sequence | shrunken log2 fold change |
| --- | --- |
| RRIRKRPPRLPRPRPRPWYQPRP | 0.218 |
| RRIRCRPPRLPRPRPRPMKFPRP | -0.0717 |
| RRIRLRPPRLPRPRPRPGSEPRP | -0.0984 |
| RRIRKRPPRLPRPRPRPNRFPRP | -0.0658 |
| RRIRDRPPRLPRPRPRPWTYPRP | -0.834 |
| RRIRSRPPRLPRPRPRPGRAPRP | 1.02 |
| RRIRKRPPRLPRPRPRPGTCPRP | 0.258 |
| RRIRCRPPRLPRPRPRPLKVPRP | -0.284 |
| RRIRHRPPRLPRPRPRPNCAPRP | 0.0721 |
| RRIRIRPPRLPRPRPRPQEKPRP | 0.0553 |
| RRIRPRPPRLPRPRPRPYVVPRP | -0.307 |
| RRIRMRPPRLPRPRPRPQYIPRP | -0.0206 |
| RRIRVRPPRLPRPRPRPIWCPRP | 0.0502 |
| RRIRERPPRLPRPRPRPMGMPRP | -0.00992 |
| RRIRKRPPRLPRPRPRPDTRPRP | 0.0202 |
| RRIRNRPPRLPRPRPRPYADPRP | -0.161 |
| RRIRLRPPRLPRPRPRPEPWPRP | 0.222 |
| RRIRNRPPRLPRPRPRPLVNPRP | -0.289 |
| RRIRSRPPRLPRPRPRPVEGPRP | -0.00141 |
| RRIRVRPPRLPRPRPRPIWLPRP | -0.106 |
| RRIRLRPPRLPRPRPRPRPYPRP | -0.0267 |
| RRIRHRPPRLPRPRPRPNRCPRP | -0.259 |
| RRIRRRPPRLPRPRPRPDIHPRP | -0.122 |
| RRIRGRPPRLPRPRPRPVAMPRP | 1.02 |
| RRIRNRPPRLPRPRPRPYCKPRP | -0.258 |
